Results on 72 sequences are retold here after the supplement of paper PMC10567573.

This data set is described as follows: protein stability index of a GFP-peptide fusion (GPS, HEK-293T) (PSI 1-6); higher = more stable.
Where [1] appears, read: treatment: DMSO, c terminus: a fixed tail appended.
[2] abbreviates: treatment: MLN4924 1 uM, 8 h, c terminus: a fixed tail appended.

± gives the standard deviation.
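Note: 24-mer peptide tiles fused after GFP, lentivirally expressed, FACS-sorted into six equal bins by GFP/DsRed ratio, decoded by Illumina sequencing, PSI is the read-weighted mean bin number.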

As for LETQAQVCQALAQVDGGANFSVDR [CPOX], the protein stability index is, setting by setting: under setting [1], 4.85 ± 0.18; under setting [2], 4.96 ± 0.14. For LEVADFLIKAGADIELGCSTPLME [ANKRD17] the same measures were 2.89 ± 0.56 and 2.82 ± 0.22.

As for LFEAGDATLASDLQDWASVGAFL [FOXJ1], the protein stability index (treatment: DMSO, c terminus: native) turned out to be 3.59 ± 0.15 and the protein stability index (treatment: MLN4924 1 uM, 8 h, c terminus: native) was determined as 3.49 ± 0.34. As to LFLMDLSEGELGGPSEPGGTHPED [RHOBTB2], the protein stability index by setting is: under setting [1], 4.45 ± 0.22; under setting [2], 4.33 ± 0.23.

As for LGDCMRTLGYMPTEMELLEVSQHI [CABP4], the protein stability index was determined as 2.46 ± 0.31 under setting [1] and 2.57 ± 0.23 under setting [2].

Turning to LGPVPREDQAEAWGCSCCPPETKH [TSPAN10], the protein stability index runs as follows: under setting [1], 4.91 ± 0.083; under setting [2], 4.97 ± 0.32. Turning to LGRPDSLELQRQREARKRALARKQ [RSPH3], the protein stability index runs as follows: under setting [1], 4.6 ± 0.17; under setting [2], 4.43 ± 0.19. As to LHIPMYFFLAILSCSEICYTFIIV [OR10K2], the protein stability index is 3.65 ± 0.48 under setting [1] and 3.18 ± 0.38 under setting [2].

For LHVKRSMGWKKACDELELHQRFLR [ZMYND11], the protein stability index stood at 2.31 ± 0.12 under setting [1] and 2.55 ± 0.45 under setting [2]. Taken in the same sequence, the figures for LIFFGGYGYLPEDKVLGTFEFDET [KLHDC2] were 2.13 ± 0.66 and 2.6 ± 0.73. Regarding LIIFDKQSSQRMRQNLKLLVEETS [CEP70], the protein stability index by setting is: under setting [1], 2.1 ± 0.25; under setting [2], 2.04 ± 0.35. Regarding LILASELSRLSVNSVTAGDYSRPL [TSN], the protein stability index amounted to 2.45 ± 0.33 under setting [1] and 2.37 ± 0.19 under setting [2]. LIVHIALPSWADICTNLCEALQNF [M1AP]: the protein stability index was 3.02 ± 0.56 under setting [1] and 3.09 ± 0.24 under setting [2]. Taken in the same sequence, the figures for LKKSRGKFIKPWESPDEMELDELL [PTPRD] were 3.52 ± 0.35 and 3.15 ± 0.44. Taken in the same sequence, the figures for LKKYLEPRCPRMVLSLKEGAREED [FBXO3] were 4.56 ± 0.34 and 4.19 ± 0.41. Taken in the same sequence, the figures for LKSMDKNGTMTIDWNEWRDYHLLH [SLC25A25] were 2.27 ± 0.05 and 2.19 ± 0.28.

Sequence LLDEIVPVYRRDCHEEVYAGSHQY [ACBD3] showed a protein stability index under setting [1] of 3.03 ± 0.13 and a protein stability index under setting [2] of 3.13 ± 0.26. For LLEATCPFGENAEFPADISSITEA [NFE2L1] the same measures were 4.48 ± 0.28 and 4.65 ± 0.17. Taken in the same sequence, the figures for LLHLDLKPANILLDAHYHVKISDF [RIPK4] were 2.45 ± 0.32 and 2.36 ± 0.48. For LLIVKLEEDCAWSQELPPPDPGPS [ZNF263] the same measures were 2.33 ± 0.29 and 2.42 ± 0.29.

For LLLELKGLQEEPVEGFRVTLVDEG [CDC34], the protein stability index runs as follows: under setting [1], 2.64 ± 0.29; under setting [2], 2.66 ± 0.21. Consider LLLEMLTFNPHKRISAFRALQHSY [CDK4], for which the protein stability index is 2.43 ± 0.32 under setting [1] and 2.41 ± 0.25 under setting [2]. Consider LLLLSKAKLVPSEREASPSNSCQD [IKZF1], for which the protein stability index is, setting by setting: under setting [1], 3.31 ± 0.099; under setting [2], 3.14 ± 0.15. Taken in the same sequence, the figures for LLMIPWGSAAKLVCYFTNWAQYRQ [CHIT1] were 3.04 ± 0.69 and 2.86 ± 0.68. As to LLSCLSKSNNRLKSLSIQYLELDR [FBXO39], the protein stability index under setting [1] was 2.54 ± 0.37 and the protein stability index under setting [2] was determined as 2.01 ± 0.33. With LLVINESIESIKWMIEEKATITSR [LURAP1L], the protein stability index reads like this: under setting [1], 2.38 ± 0.24; under setting [2], 2.51 ± 0.3.

LNERKQASAIKKEELVARSETHAA [CHGB]: the protein stability index is 5.48 ± 0.22 under setting [1] and 5 ± 0.23 under setting [2].

Take LNFCGPNVINHFYCDLPQLFQLSC [OR3A1]: the protein stability index was found to be 2.83 ± 0.51 under setting [1] and 2.6 ± 0.71 under setting [2]. Consider LNLTEGFAVLHWKPPQNPVDTYDV [TNXB], for which the protein stability index came to 2.5 ± 0.66 under setting [1] and 2.69 ± 0.45 under setting [2].

Turning to LNQKTSEKMKKRKMSNSFHGIRPP [RHOBTB3], the protein stability index by setting is: under setting [1], 3.95 ± 0.34; under setting [2], 4.23 ± 0.11.

In turn, LNSMPKRLCLVCGDIASGYHYGVA [ESRRG] came in with a protein stability index under setting [1] of 2.48 ± 0.22 and a protein stability index under setting [2] of 2.23 ± 0.39.

Take LNVTNYCHLAHELRLSCMERKKVQ [DCAF4]: the protein stability index runs as follows: under setting [1], 2.61 ± 0.19; under setting [2], 2.36 ± 0.21. Taken in the same sequence, the figures for LPAVKVFLDWLRTNPDLIIVCAQS [SMG5] were 2.27 ± 0.47 and 2.41 ± 0.45. As to LPFERLAFVLSSNSLKHCTELELF [KLHL13], the protein stability index is, setting by setting: under setting [1], 2.73 ± 0.6; under setting [2], 2.76 ± 0.62. Taken in the same sequence, the figures for LPFLAHALYVQAPTVTIEGFLQAL [TRIP13] were 2.93 ± 0.66 and 2.76 ± 0.51. For LPSLGLPQYRSYFMECLVDARMLD [PPFIA4] the same measures were 2.47 ± 0.46 and 2.13 ± 0.38. For LPWFRTLSWYFLLCVNYFFYGETV [CDS1] the same measures were 3.08 ± 0.14 and 3.38 ± 0.75. Turning to LPWLSLRALKFRERDALEAVFRFW [DNAAF3], the protein stability index under setting [1] was found to be 2.46 ± 0.24 and the protein stability index under setting [2] amounted to 2.49 ± 0.28. Taken in the same sequence, the figures for LQKKVEQLSRELSTLRNLFKQLPE [CEBPB] were 2.3 ± 0.32 and 2.43 ± 0.41. On to LQNNCTSSITRQKKRLQELALALK [TMEM120A], for which the protein stability index by setting is: under setting [1], 2.79 ± 0.15; under setting [2], 2.83 ± 0.4. Taken in the same sequence, the figures for LQQIADFMTTNVPNVYPAAPQGGM [ADD1] were 3.3 ± 0.2 and 3.29 ± 0.17. Taken in the same sequence, the figures for LQYSTQVHTEFTLRNFNSAKDMKK [MATN2] were 3.73 ± 0.3 and 4.08 ± 0.32. Consider LRGLCANTVLRFLDLKGNNLRAAG [LRRC45], for which the protein stability index came to 2.3 ± 0.24 under setting [1] and 2.24 ± 0.16 under setting [2]. In the case of LRKGFSCVKNELLPSHPLELSEKN [POMP], the protein stability index reads like this: under setting [1], 3.61 ± 0.094; under setting [2], 3.75 ± 0.24. Taken in the same sequence, the figures for LRKREKAEEKERRRKEYDALKAAK [LRRC59] were 4.66 ± 0.4 and 4.79 ± 0.31.

As to LRQKGNRNTHKDLLRFAQVFSQMI [FEM1B], the protein stability index by setting is: under setting [1], 2.38 ± 0.56; under setting [2], 2.26 ± 0.32. Taken in the same sequence, the figures for LRREKPSEEMVKMVLSRPCHPDDQ [INTS3] were 4.61 ± 0.12 and 4.69 ± 0.15. Regarding LRRKSPASGQGPMCNVKAPLGSPS [ADAMTS4], the protein stability index came out at 3.85 ± 0.2 under setting [1] and 3.86 ± 0.46 under setting [2].

With LRSKLCSLYENDCIFDKFECVWNG [PPP2R2B], the protein stability index reads like this: under setting [1], 2.5 ± 0.34; under setting [2], 2.42 ± 0.39. For LRTYLARLPWAGQLTKELPLSPAF [PBXIP1] the same measures were 2.22 ± 0.64 and 2.16 ± 0.22.

Consider LSAFYLSYFDMLYPEDSSWAAKAP [SPDEF], for which the protein stability index reads like this: under setting [1], 2.63 ± 0.59; under setting [2], 2.48 ± 0.52.

As to LSICFTCFKAAFLDFKDLLESEDW [TEX19], the protein stability index by setting is: under setting [1], 2.62 ± 0.5; under setting [2], 2.69 ± 0.39.

For LSKSNKPIHTIILNPHVHLVGDDA [CAMK2D], the protein stability index was 3.12 ± 0.3 under setting [1] and 2.95 ± 0.48 under setting [2]. As for LSMNWAIVADILLYVVIPTRRSTA [SPNS1], the protein stability index stood at 2.63 ± 0.62 under setting [1] and 3.01 ± 0.77 under setting [2]. Taken in the same sequence, the figures for LSPKKTWEGFIGGFFSTVVFGFIA [CDS1] were 2.28 ± 0.47 and 2.15 ± 0.63. Taken in the same sequence, the figures for LSPSRGVAQCLRDLVAMQWADAAG [ZSWIM9] were 2.7 ± 0.17 and 2.77 ± 0.28. For LTGFSWRGGSDPETTGIQIWSEVF [ATL3] the same measures were 2.16 ± 0.33 and 1.59 ± 0.4. LVACCLADIFRIYAPEAPYTSPDK [PDS5B] registered a protein stability index under setting [1] of 3.3 ± 1.4. On to LVSGSQSALGPPPAASNSSDLFDL [CLINT1], for which the protein stability index came out at 4.43 ± 0.24 under setting [1] and 4.34 ± 0.18 under setting [2].

LWEKLAKQGELPREVRRAQARLLN [NOP53] had a protein stability index under setting [1] of 2.78 ± 0.12 and a protein stability index under setting [2] of 2.82 ± 0.67. For the sequence LWTTSRVLKVLSVCSSNKPAIVEA [CTNNB1], the protein stability index was 2.21 ± 0.3 under setting [1] and 2.08 ± 0.28 under setting [2].

LYFQWYIFYFVIQRKKWVDLAWMI [FADS1]: the protein stability index under setting [1] is 2.25 ± 0.7 and the protein stability index under setting [2] was determined as 3.09 ± 0.93. For MAALNSQTAVQFQQYAAQQYPGNY [ACBD3] the same measures were 3.09 ± 0.38 and 3.16 ± 0.1. For MADSGLREPQEDSQKDLENDPSVN [TOR1AIP2] the same measures were 5.65 ± 0.19 and 5.57 ± 0.21. Turning to MALLRKINQVLLFLLIVTLCVILY [GLT8D2], the protein stability index reads like this: under setting [1], 2.12 ± 0.27; under setting [2], 2.11 ± 0.18. As for MAMTAGTTTTFPMSNHTRERVTVA [STK38L], the protein stability index came out at 3.2 ± 0.36 under setting [1] and 3.28 ± 0.36 under setting [2]. For MASGPGSQEREGLLIVKLEEDCAW [ZNF263] the same measures were 2.44 ± 0.36 and 2.28 ± 0.47.

On to MASLLEDLSHIEGLSQAPQPLADE [SERTAD1], for which the protein stability index runs as follows: under setting [1], 4.82 ± 0.092; under setting [2], 4.72 ± 0.1. Consider MATEGLHENETLASLKSEAESLKG [GNB5], for which the protein stability index under setting [1] came to 5.31 ± 0.23 and the protein stability index under setting [2] worked out at 5.2 ± 0.15. MCPLYDPNRQLWIELAPLSMPRIN [GAN]: the protein stability index by setting is: under setting [1], 2.22 ± 0.11; under setting [2], 2.23 ± 0.28. As to MEEGERSPLLSQETAGQKPLSVHR [TSPAN10], the protein stability index worked out at 5.08 ± 0.11 under setting [1] and 5.02 ± 0.18 under setting [2]. For METFDPTELPELLKLYYRRLFPYS [PRIM1] the same measures were 2.43 ± 0.51 and 2.38 ± 0.35.
